Here are results for two sequences from patent US20230272016A1, “PEPTIDES FOR IMMUNOTHERAPY” (Second Genome, Inc., priority 2020, published 2023).

What all share (assay type): cell-based
One test relates to CXCL10 production. The test is described as follows: Three point dose response cytokine screen of microbiome peptides. The following applies: three point dose response curve. As to the method: Studies were performed to identify target peptides that induced CXCL10 production. Target peptides identified from human microbiomes isolated from humans that responded to anti-PD-1 therapy were each tested in a three point dose response curve with TNF-α, CXCL10, IL6, and INF-γ. […] Peptide sequences and characteristics can be found in Tables 13-15.

The target in test [1] is T1, CXCR3 (Homo sapiens, UniProt P49682).
T1 sequence (P49682 1-368): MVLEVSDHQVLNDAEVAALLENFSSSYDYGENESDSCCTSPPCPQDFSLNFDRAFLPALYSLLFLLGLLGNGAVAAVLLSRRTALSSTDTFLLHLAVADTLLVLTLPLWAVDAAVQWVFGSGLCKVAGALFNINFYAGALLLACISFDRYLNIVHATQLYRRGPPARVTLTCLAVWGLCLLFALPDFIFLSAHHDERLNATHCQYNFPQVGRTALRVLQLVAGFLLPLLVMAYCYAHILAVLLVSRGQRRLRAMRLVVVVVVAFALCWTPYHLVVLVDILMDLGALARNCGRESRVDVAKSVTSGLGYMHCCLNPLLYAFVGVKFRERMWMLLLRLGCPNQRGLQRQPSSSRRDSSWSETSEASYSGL
The test can be described thus: SelectScreen chemokine receptor U2OS agonist/antagonist assay. More on the design: host or cells: CXCR3-bla U2OS. As to conditions: CXCR3-bla U2OS cells; for SelectScreen Antagonist Mode: control agonist I-TAC (CXCL11) at EC80. As for the experimental part:
Peptides SG-3-00802 and SG-3-05021 were screened for agonist and antagonist activity of the chemokine receptors CCR7, CXCR3, and CXCR4.
In agonist assays, chemokine receptor expressing U2OS cells are thawed and resuspended in Assay Media (DMEM, 1% dialyzed FBS, 25 mM HEPES pH 7.3, 0.1 mM NEAA, 100 U/mL/100 μg/mL Pen/Strep) to a concentration of 312,500 cells/mL. 4 μL of a 10×serial dilution of I-TAC (control agonist starting concentration, 500 nM) or compounds are added to appropriate wells of a 384-well TC-Treated assay plate. 32 μL of cell suspension (10,000 cells) is added to each well. 4 μL of Assay Media is added to all wells to bring the final assay volume to 40 μL. The plate is incubated for 16-24 hours at 37° C./5% CO2 in a humidified incubator. 8 μL of 1 μM Substrate+Solution D Loading Solution is added to each well and the plate is incubated for 2 hours at room temperature. The plate is read on a fluorescence plate reader.
In antagonist assays, CXCR3-bla U2OS cells were thawed and prepared as described above for the Agonist assay. 4 μL of 10×compounds or assay media was added to appropriate wells of a TC-Treated assay plate. 32 μL of cell suspension was added to the wells and pre-incubated at 37° C./5% CO2 in a humidified incubator with compounds and control antagonist titration for 30 minutes. 4 μL of 10×control agonist I-TAC at the pre-determined EC80 concentration is added to wells containing the control antagonist or compounds. The plate is incubated for 16-24 hours at 37° C./5% CO2 in a humidified incubator. 8 μL of 1 μM Substrate+Solution D Loading Solution is added to each well and the plate is incubated for 2 hours at room temperature. The plate is read on a fluorescence plate reader.
Activity assays for CXCR4, CXCR3, and CCR7 were performed in agonist and antagonist mode for both SG-3-00802 and SG-3-05021 peptides. […] SG-3-00802 and SG-3-05021 may allow for a mechanism to enhance CXCR3 activation already shown to be a critical pathway in numerous publications as mediating anti-tumor treatment.

The next test deals with T2, CCR7 (Homo sapiens, UniProt P32248).
T2 construct: expressed in transfected cells
T2 sequence (P32248 25-378): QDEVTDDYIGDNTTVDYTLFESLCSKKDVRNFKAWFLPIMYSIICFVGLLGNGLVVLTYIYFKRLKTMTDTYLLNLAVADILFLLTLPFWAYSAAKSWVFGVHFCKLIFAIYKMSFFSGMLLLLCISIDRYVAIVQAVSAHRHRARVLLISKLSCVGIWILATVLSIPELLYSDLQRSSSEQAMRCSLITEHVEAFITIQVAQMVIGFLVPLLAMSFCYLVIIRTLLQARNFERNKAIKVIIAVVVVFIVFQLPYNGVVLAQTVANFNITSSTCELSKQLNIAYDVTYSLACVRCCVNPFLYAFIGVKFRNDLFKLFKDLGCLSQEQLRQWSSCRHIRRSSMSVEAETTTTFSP
The test is described as follows: PathHunter β-Arrestin GPCR assay (gpcrMAX). As to conditions: vehicle DMSO = 0%, control ligand = 100%. The source says:
(§1) The PathHunter® β-Arrestin Assay monitored activation of a panel of 168 G-protein coupled receptors (GPCRs) with […] activation of the GPCR in agonist and antagonist mode.
(§2) where the test sample is the peptide, the vehicle control=DMSO (0% activity), and the control ligand=control compound (100% activity).
(§3) Peptides SG-3-00802 and SG-3-05021 were identified as an agonist, an antagonist, a PAM (Positive Allosteric Modulator), or an inverse-agonist. Agonist, antagonist, PAM, and inverse-agonist were identified according to the guidelines in Table 18. The basal activity/noise is a % activity of −20% to 20% for both agonist and antagonist modes. A PAM (Positive Allosteric Modulator) binds to a receptor, at a different site than the agonist, to change the receptor's response to the agonist. An inverse-Agonist is a binding partner with agonistic shutting down of basal activity in the cell. An antagonist antagonizes the activity of a particular binding partner.

In test [2] the target is T1, CXCR3. The test can be described thus: PathHunter β-Arrestin GPCR assay (gpcrMAX). The following applies: vehicle DMSO = 0%, control ligand = 100%.
Text: as §1, §2, §3

The next test has as its target T3, CXCR4 (Homo sapiens, UniProt P61073).
T3 construct: expressed in transfected cells
The test is described as follows: PathHunter β-Arrestin GPCR assay (gpcrMAX). As to conditions: vehicle DMSO = 0%, control ligand = 100%.
Text: as §1, §2, §3

Entries after “also recorded” stand apart in the source; their conditions may differ.

T3 sequence (P61073 whole entry): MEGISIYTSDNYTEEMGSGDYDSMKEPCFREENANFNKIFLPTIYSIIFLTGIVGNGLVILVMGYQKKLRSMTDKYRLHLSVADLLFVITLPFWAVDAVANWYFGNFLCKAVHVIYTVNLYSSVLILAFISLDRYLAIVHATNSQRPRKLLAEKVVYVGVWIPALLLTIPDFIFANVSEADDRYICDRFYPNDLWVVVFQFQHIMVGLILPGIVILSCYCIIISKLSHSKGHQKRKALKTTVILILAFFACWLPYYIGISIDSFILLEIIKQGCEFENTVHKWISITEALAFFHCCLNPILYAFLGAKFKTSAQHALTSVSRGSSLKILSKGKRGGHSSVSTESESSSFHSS

Regarding “MKVRPSVKPMCEKCKIIRRKGRVMVICENPKHKQRQG [SG-3-00802, peptide from oscillibacter.sp t_155102]”, the CXCL10 induction entry in the test with CXCL10 production is recorded as “high CXCL10 induction”. Also, in the test with CXCR3 [1], the “SelectScreen Agonist Mode” value is “weak agonistic activity and No”; the “SelectScreen Antagonist Mode” value was “potent reverse antagonistic activity (sensitization); also recorded: sensitized CXCR3; also recorded: Sensitizer”.
On to “LGKTDWIEKYFKVKKEKIDKMQRFLQG [SG-3-05021, peptide from bacteroides.clarus.dsm.22519]”, for which, in the test on CXCL10 production, the CXCL10 induction entry is recorded as “high CXCL10 induction”. Moreover, in the test with CCR7, the “% Agonist Activity (gpcrMAX Agonist Mode)” value (“% Agonist Activity” below) is listed as 0% and the “% Antagonist Activity (gpcrMAX Antagonist Mode)” value (“% Antagonist Activity” below) is given as −18%. In the test with CXCR3 [2], the “% Agonist Activity” value is −4% and the “% Antagonist Activity” value is −20%. Moreover, in the test with CXCR4, the “% Agonist Activity” value is given as 1% and the “% Antagonist Activity” value is listed as 10%. Moreover, in the test with CXCR3 [1], the “SelectScreen Agonist Mode” value is “no agonistic activity and No”; the “SelectScreen Antagonist Mode” value is reported as “sensitized CXCR3; also recorded: Sensitizer”.
